B1: LOXL2 (parent)
chain: FSPDGPSRFRKAYKPEQPLVRLRG

Variants of: B1
Test: protein stability index of a GFP-peptide fusion (GPS, HEK-293T) (PSI 1-6); higher = more stable
Details: c terminus: a fixed tail appended
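Note: lentivirally expressed fusions sorted by FACS into six bins by GFP to DsRed ratio, PSI derived from sequencing read proportions per bin multiplied by bin number.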

Protein stability index, by site and new letter:
G24: F 1.73 | V 2.73 | Q 2.72 | P 1.82 | L 3.27 | D 1.8 | C 2.27 | R 2.79 | N 1.91 | S 1.41 | M 2.72 | A 2.71 | W 2.07 | Y 1.85 | H 1.52 | E 1.91 | T 1.38 | I 1.44 | K 1.69
R23: S 1.82 | P 1.85 | V 1.98 | A 1.89 | M 2.33 | C 2.39 | H 1.85 | Q 2.13 | N 1.29 | G 1.96 | D 2.78 | F 1.97 | T 1.33 | K 1.53 | E 2.46 | W 2.25 | Y 1.2 | I 2.31 | L 1.37
L22: T 2.26 | Y 1.75 | R 2.35 | W 1.47 | S 1.74 | V 1.54 | Q 1.99

Reference: the supplement of paper PMC10567573
